# From paper PMC3081611
# Target: CurA ACPI-ACPII-ACPIII tridomain
# Test: negative stain electron microscopy
substance,measurement,value
CurA ACPI-ACPII-ACPIII tridomain (domain or fragment),percent existing as dimers,25%
same,stoichiometry N,2
